In paper PMC314469, “Protein Interaction Networks by Proteome Peptide Scanning” (PLoS Biology, 2004):

T1: amphyphisin SH3 (AMPH_HUMAN), P49418
T1 chain: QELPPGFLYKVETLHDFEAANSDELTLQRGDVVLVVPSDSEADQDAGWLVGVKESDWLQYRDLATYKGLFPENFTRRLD


Legend:
[1] = molecular target: endophilin SH3 (SH3G2_HUMAN), Q99962; experiment: SPOT array
[2] = molecular target: T1, amphyphisin SH3 (AMPH_HUMAN), P49418; experiment: SPOT array

Row | Binder | normalised SPOT signal, Boehringer light units (BLU); mean over the file's lines of this peptide [1] | normalised SPOT signal, Boehringer light units (BLU); mean over the file's lines of this peptide [2]
1 | PSNPPPRPPAEARK [P13498 150-164] | 991 | 182
2 | PTILPSRPQRSASH [Q16671 539-552] | 9690 | 17500
3 | AASGIKRPMASEVL [Q99755 29-42] | 116 | 48.8
4 | PSGHIKRPMNAFMV [Q06945 55-68] | 75.8 | 47.9
5 | PSARPARPPRVRGP [O60342 30-44] | 21500 | 16100
6 | PTGQPRRPRNLAAA [Q00325 36-49] | 254 | 66
7 | PSRPPRRPPWGRGS [Q99785 97-111] | 12300 | 10100
8 | PSPNFKRPYQRFQW [Q9HBF9 133-146] | 71.3 | 43.9
9 | PSLRPLKPPPPPRQ [Q96DL6 53-67] | 4590 | 876
10 | PTSVPRRPGQRRPP [P48023 33-46] | 870 | 32.6
11 | PSMDFNRPGKRAPW [Q9UFP0 807-820] | 460 | 77.6
12 | PTTRPTRPPPPLIP [O75376 1024-1038] | 4420 | 1510
13 | PSESLPRPRRPLPT [Q9P0U4 228-241] | 405 | 264
14 | PSFHIKRPAPRPLA [O60890 702-715] | 61.1 | 18.2
15 | PSPSPARPPGTSPP [Q8TDP0 823-837] | 67.6 | 31.2
16 | PTEGPRRPPPRPPS [Q9BVH8 774-788] | 3050 | 3310
17 | PSRPPSRPSRPPSH [Q99700 584-597] | 11400 | 11900
18 | PSDLPKKPPKPEFG [Q96QH2 28-42] | 258 | 16.4
19 | PTRPPSRPPSRPQS [Q9NZM4 744-758] | 5850 | 7120
20 | PSRLPRRPNDIYVN [O75817 27-40] | 41.9 | 38.8
21 | PSLLPPRPPPALSL [Q9NRR6 185-199] | 5800 | 82.9

Row | Binder | normalised SPOT signal, Boehringer light units (BLU); mean over the file's lines of this peptide [1] | normalised SPOT signal, Boehringer light units (BLU); mean over the file's lines of this peptide [2]
22 | PSPALPRPSRSSPG [Q9UPX1 609-622] | 2060 | 778
23 | PSRFIRRPSTTISP [O75916 510-523] | 364 | 42
24 | PSAPPAKPPSTQRA [O60904 189-203] | 254 | 53.9
25 | PTSSPHRPHRLPLA [O95327 205-218] | 166 | 248
26 | PSPLPPKPPFPGPG [Q8WVQ3 114-128] | 843 | 43.5
27 | PSPGPSRPPHGTQA [P43681 443-457] | 128 | 47
28 | PTRPPSRPPSRPSR [Q99700 579-593] | 19900 | 23500
29 | PSQVPRRPHHTPFQ [Q9HBS1 152-165] | 1670 | 43.1
30 | PSGPPARPSRSMWD [Q9NXK1 363-376] | 2740 | 3350
31 | PSQPPPRPPPDYLR [Q9H013 786-800] | 1790 | 68.9
32 | PSDHIKRPMNAFMV [O95416 4-17] | 85 | 16.2
33 | PSIIFRRPEEAALS [Q9BZD6 162-175] | 48.3 | 34.1
34 | ASPTPKRPSENMLI [O75592 2352-2365] | 43.3 | 43.4
35 | PSQVPPRPPPPRLP [Q9UDM5 470-484] | 12300 | 2340
36 | PTKSIKRPSPAEKS [Q9HC35 168-181] | 75.3 | 7.4
37 | ASPSLERPEKGAGK [Q13601 2-15] | 175 | 15
38 | PTGSLRRPLGPHAP [Q9H3T3 825-838] | 35 | 15.7
39 | ASQSPKKPPAKDPL [Q9NTY7 879-893] | 60.6 | 57.6
40 | PTQELRRPSKSMDK [Q9C098 170-183] | 35 | 48.6
41 | PRVDPYRPVRLPMQ [Q93074 1800-1813] | 175 | 327
42 | PSNPIRRPISADSA [Q00610 58-71] | 47.5 | 35.4
